The text below walks through data of the supplement of paper PMC9112550, “Optimization of the antimicrobial peptide Bac7 by deep mutational scanning” (BMC Biology, 2022).

This data set deals with Escherichia coli TOP10. The data set is described as follows: shrunken log2 fold change of peptide-encoding DNA abundance (4.5 h post-induction vs induction); higher = less antimicrobial activity (less host growth inhibition). The settings on record: time post-induction: 4.5 h; library: site-saturation at positions 5, 18, 19, 20.
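Also: peptides expressed intracellularly from a pBAD plasmid library in pooled LB shake-flask culture, induced with 0.3% L-arabinose, DNA abundance read by NGS, three biological replicates, DESeq2 with apeglm shrinkage.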

For the sequence RRIRERPPRLPRPRPRPAVCPRP, the “shrunken log2 fold change” value turned out to be 0.086. As to RRIRMRPPRLPRPRPRPYCKPRP, the “shrunken log2 fold change” value is -1.02.

As for RRIRIRPPRLPRPRPRPYSDPRP, the “shrunken log2 fold change” value is -0.186.

Consider RRIRFRPPRLPRPRPRPPWAPRP, for which the “shrunken log2 fold change” value is 0.267. On to RRIRIRPPRLPRPRPRPAVRPRP, for which the “shrunken log2 fold change” value came to 0.445.

Consider RRIRFRPPRLPRPRPRPMFPPRP, for which the “shrunken log2 fold change” value was -0.368. Regarding RRIRGRPPRLPRPRPRPQRDPRP, the “shrunken log2 fold change” value worked out at 0.419. As to RRIRLRPPRLPRPRPRPYERPRP, the “shrunken log2 fold change” value was -0.148. Under RRIRARPPRLPRPRPRPDTWPRP stands 1.13; under RRIRNRPPRLPRPRPRPQQGPRP, -0.159. Under RRIRARPPRLPRPRPRPLHVPRP stands 0.0439; under RRIRQRPPRLPRPRPRPFATPRP, 0.275; under RRIRKRPPRLPRPRPRPIDIPRP, 0.00848. To RRIRNRPPRLPRPRPRPFQCPRP belongs -0.0493. Take RRIRLRPPRLPRPRPRPEITPRP: the “shrunken log2 fold change” value is -0.11. Consider RRIRARPPRLPRPRPRPPNVPRP, for which the “shrunken log2 fold change” value stood at 0.109.

Take RRIRDRPPRLPRPRPRPMGYPRP: the “shrunken log2 fold change” value was -0.115. To RRIRTRPPRLPRPRPRPLGLPRP belongs 0.207; to RRIRRRPPRLPRPRPRPDPAPRP, 1.18. As to RRIRQRPPRLPRPRPRPQHEPRP, the “shrunken log2 fold change” value came out at 0.119. As for RRIRSRPPRLPRPRPRPYSAPRP, the “shrunken log2 fold change” value was -0.0105.

For the sequence RRIRDRPPRLPRPRPRPSSIPRP, the “shrunken log2 fold change” value came to 0.0533.

Turning to RRIRFRPPRLPRPRPRPYEHPRP, the “shrunken log2 fold change” value was -0.0962. To RRIRFRPPRLPRPRPRPNKQPRP belongs 0.0839. To RRIRPRPPRLPRPRPRPFILPRP belongs -0.582; to RRIRVRPPRLPRPRPRPCDMPRP, -0.448; to RRIRVRPPRLPRPRPRPKNRPRP, 0.137. Under RRIRARPPRLPRPRPRPEYSPRP stands 0.0132; under RRIRVRPPRLPRPRPRPMFIPRP, -0.384; under RRIRARPPRLPRPRPRPMMIPRP, 0.313. As to RRIRMRPPRLPRPRPRPHSGPRP, the “shrunken log2 fold change” value worked out at 0.00795. In the case of RRIRHRPPRLPRPRPRPGFKPRP, the “shrunken log2 fold change” value was -0.206. RRIRDRPPRLPRPRPRPWCLPRP: the “shrunken log2 fold change” value was -0.129. RRIRLRPPRLPRPRPRPCYNPRP: the “shrunken log2 fold change” value is -0.206.

Regarding RRIRPRPPRLPRPRPRPNHDPRP, the “shrunken log2 fold change” value is -0.384.

Turning to RRIRCRPPRLPRPRPRPYVNPRP, the “shrunken log2 fold change” value is -1.3. For RRIRARPPRLPRPRPRPEQRPRP, the “shrunken log2 fold change” value worked out at 0.2.

In the case of RRIRFRPPRLPRPRPRPYTHPRP, the “shrunken log2 fold change” value was -0.532.

In the case of RRIRARPPRLPRPRPRPAICPRP, the “shrunken log2 fold change” value stood at 0.252. As to RRIRQRPPRLPRPRPRPPVPPRP, the “shrunken log2 fold change” value turned out to be 0.197. Regarding RRIRTRPPRLPRPRPRPWLRPRP, the “shrunken log2 fold change” value is -0.161. For RRIRRRPPRLPRPRPRPVRMPRP, the “shrunken log2 fold change” value is 0.497. Under RRIRQRPPRLPRPRPRPRCKPRP stands 0.268; under RRIRSRPPRLPRPRPRPHYRPRP, 0.0349. As to RRIRHRPPRLPRPRPRPGVTPRP, the “shrunken log2 fold change” value came to 0.00739.

As to RRIRDRPPRLPRPRPRPGNYPRP, the “shrunken log2 fold change” value is -0.0159. Regarding RRIRKRPPRLPRPRPRPGGMPRP, the “shrunken log2 fold change” value is 0.633. Take RRIRPRPPRLPRPRPRPNVVPRP: the “shrunken log2 fold change” value was -0.0229. To RRIRRRPPRLPRPRPRPSYRPRP belongs -0.142; to RRIRPRPPRLPRPRPRPYHYPRP, -0.84; to RRIRDRPPRLPRPRPRPGKDPRP, -0.0503. To RRIRFRPPRLPRPRPRPCKWPRP belongs -0.0168; to RRIRDRPPRLPRPRPRPKEVPRP, 0.174.

For the sequence RRIRSRPPRLPRPRPRPLYWPRP, the “shrunken log2 fold change” value is -0.154. Under RRIRNRPPRLPRPRPRPYINPRP stands -0.801; under RRIRERPPRLPRPRPRPESPPRP, 0.0699.

Take RRIRPRPPRLPRPRPRPTNDPRP: the “shrunken log2 fold change” value is -0.00332. As for RRIRDRPPRLPRPRPRPFQGPRP, the “shrunken log2 fold change” value is -0.181. For the sequence RRIRPRPPRLPRPRPRPYMVPRP, the “shrunken log2 fold change” value was -1.09.

Consider RRIRCRPPRLPRPRPRPKFVPRP, for which the “shrunken log2 fold change” value is -0.155. Under RRIRTRPPRLPRPRPRPTPKPRP stands 0.283; under RRIRLRPPRLPRPRPRPRYYPRP, -0.103; under RRIRLRPPRLPRPRPRPTWQPRP, 0.187. Under RRIRDRPPRLPRPRPRPMKIPRP stands -0.0804; under RRIRERPPRLPRPRPRPLWQPRP, 0.113.

RRIRPRPPRLPRPRPRPMPTPRP: the “shrunken log2 fold change” value stood at 0.22. To RRIRRRPPRLPRPRPRPEEEPRP belongs 0.855; to RRIRQRPPRLPRPRPRPRLWPRP, 0.504; to RRIRPRPPRLPRPRPRPILVPRP, -0.178. On to RRIRPRPPRLPRPRPRPPCLPRP, for which the “shrunken log2 fold change” value is -0.153.

Consider RRIRERPPRLPRPRPRPFLDPRP, for which the “shrunken log2 fold change” value was -0.318. As to RRIRVRPPRLPRPRPRPICSPRP, the “shrunken log2 fold change” value is -0.154. As for RRIRERPPRLPRPRPRPRTRPRP, the “shrunken log2 fold change” value was determined as 0.12. To RRIRTRPPRLPRPRPRPVHQPRP belongs -0.022; to RRIRKRPPRLPRPRPRPSDDPRP, 0.154; to RRIRWRPPRLPRPRPRPLMHPRP, 0.0245. On to RRIRNRPPRLPRPRPRPGAWPRP, for which the “shrunken log2 fold change” value stood at 0.0927. On to RRIRMRPPRLPRPRPRPDYMPRP, for which the “shrunken log2 fold change” value was -0.00256. To RRIRDRPPRLPRPRPRPPATPRP belongs 0.75; to RRIRPRPPRLPRPRPRPGHHPRP, 0.0565; to RRIRCRPPRLPRPRPRPGMVPRP, 0.0377. In the case of RRIRKRPPRLPRPRPRPSHLPRP, the “shrunken log2 fold change” value was -0.124. To RRIRCRPPRLPRPRPRPFHIPRP belongs -1.96; to RRIRFRPPRLPRPRPRPCLCPRP, -0.0404; to RRIRTRPPRLPRPRPRPGHLPRP, -0.377. RRIRERPPRLPRPRPRPACFPRP: the “shrunken log2 fold change” value is 0.00624. Under RRIRWRPPRLPRPRPRPYADPRP stands -0.0623; under RRIRTRPPRLPRPRPRPLMEPRP, 0.0859. To RRIRLRPPRLPRPRPRPNQFPRP belongs 0.0261; to RRIRERPPRLPRPRPRPQKAPRP, -0.0836.

Regarding RRIRLRPPRLPRPRPRPIRKPRP, the “shrunken log2 fold change” value was -0.14.
